B1: GpH7-B3 variant G237_09D/GpL16-k0 (antibody, human IgG1, kappa)
heavy: not shown
light: DIVMTQSPLSLPVTPGEPASISCQASESLVHSNRNTYLHWYLQKPGQSPQLLIYKVSNRFSGVPDRFSGSGSGTDFTLKISRVEAEDVGVYYCSQNTHVPPTFGQGTKVEIERTVAAPSVFIFPPSDEQLKSGTASVVCLLNNFYPREAKVQWKVDNALQSGNSQESVTEQDSKDSTYSLSSTLTLSKADYEKHKVYACEVTHQGLSSPVTKSFNRGEC
notes: also called Ho Ab G237_09D
B2: GpH7-B3 variant G237_10E/GpL16-k0 (antibody, human IgG1, kappa)
heavy: not shown
light: B1 light
notes: also called Ho Ab G237_10E
B3: GpH7-B3 variant G237_13S/GpL16-k0 (antibody, human IgG1, kappa)
heavy: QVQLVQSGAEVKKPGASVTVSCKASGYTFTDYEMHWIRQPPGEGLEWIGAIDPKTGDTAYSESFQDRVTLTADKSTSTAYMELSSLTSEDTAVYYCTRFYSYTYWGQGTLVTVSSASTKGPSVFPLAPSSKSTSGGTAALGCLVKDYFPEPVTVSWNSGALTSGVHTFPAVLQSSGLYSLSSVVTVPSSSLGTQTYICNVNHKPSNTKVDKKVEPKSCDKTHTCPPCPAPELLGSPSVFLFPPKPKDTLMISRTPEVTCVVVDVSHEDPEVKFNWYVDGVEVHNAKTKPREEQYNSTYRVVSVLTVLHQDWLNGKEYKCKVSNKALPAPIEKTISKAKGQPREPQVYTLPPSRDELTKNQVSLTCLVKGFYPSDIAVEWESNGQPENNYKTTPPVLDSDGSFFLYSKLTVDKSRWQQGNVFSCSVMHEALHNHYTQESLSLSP
light: B1 light
notes: also called Ho Ab G237_13S
B4: GpH7-B3 variant G237_18N/GpL16-k0 (antibody, human IgG1, kappa)
heavy: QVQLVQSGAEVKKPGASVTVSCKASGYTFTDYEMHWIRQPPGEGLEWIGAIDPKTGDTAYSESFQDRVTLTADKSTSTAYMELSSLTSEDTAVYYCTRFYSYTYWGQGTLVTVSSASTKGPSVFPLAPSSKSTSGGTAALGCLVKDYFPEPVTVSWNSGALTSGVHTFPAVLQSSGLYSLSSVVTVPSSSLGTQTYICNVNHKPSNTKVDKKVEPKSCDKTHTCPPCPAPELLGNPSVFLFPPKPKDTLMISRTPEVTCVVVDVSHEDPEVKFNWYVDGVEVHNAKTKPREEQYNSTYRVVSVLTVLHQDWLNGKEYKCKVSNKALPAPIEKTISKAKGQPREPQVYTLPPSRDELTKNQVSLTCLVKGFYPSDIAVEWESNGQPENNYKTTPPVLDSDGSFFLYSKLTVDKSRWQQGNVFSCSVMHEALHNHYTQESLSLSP
light: B1 light
notes: also called Ho Ab G237_18N
B5: GpH7-B3 variant G237_19Q/GpL16-k0 (antibody, human IgG1, kappa)
heavy: not shown
light: B1 light
notes: also called Ho Ab G237_19Q
B6: GpH7-B3 variant G237_20W/GpL16-k0 (antibody, human IgG1, kappa)
heavy: not shown
light: B1 light
notes: also called Ho Ab G237_20W
B7: GpH7-B3 variant H268_01G/GpL16-k0 (antibody, human IgG1, kappa)
heavy: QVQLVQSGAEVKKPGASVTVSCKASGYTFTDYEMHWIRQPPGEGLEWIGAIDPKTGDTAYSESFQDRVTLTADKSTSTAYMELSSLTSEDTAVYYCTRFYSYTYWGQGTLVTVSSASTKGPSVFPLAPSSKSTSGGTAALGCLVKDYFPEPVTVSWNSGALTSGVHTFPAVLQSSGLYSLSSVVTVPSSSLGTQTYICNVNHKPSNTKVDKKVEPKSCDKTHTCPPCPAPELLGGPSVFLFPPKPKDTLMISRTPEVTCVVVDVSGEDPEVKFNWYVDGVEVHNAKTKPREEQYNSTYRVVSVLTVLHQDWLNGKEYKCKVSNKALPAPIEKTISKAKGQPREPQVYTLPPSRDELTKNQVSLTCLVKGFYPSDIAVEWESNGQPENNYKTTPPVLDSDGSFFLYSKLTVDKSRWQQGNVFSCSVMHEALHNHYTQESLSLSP
light: B1 light
notes: also called Ho Ab H268_01G
B8: GpH7-B3 variant H268_03V/GpL16-k0 (antibody, human IgG1, kappa)
heavy: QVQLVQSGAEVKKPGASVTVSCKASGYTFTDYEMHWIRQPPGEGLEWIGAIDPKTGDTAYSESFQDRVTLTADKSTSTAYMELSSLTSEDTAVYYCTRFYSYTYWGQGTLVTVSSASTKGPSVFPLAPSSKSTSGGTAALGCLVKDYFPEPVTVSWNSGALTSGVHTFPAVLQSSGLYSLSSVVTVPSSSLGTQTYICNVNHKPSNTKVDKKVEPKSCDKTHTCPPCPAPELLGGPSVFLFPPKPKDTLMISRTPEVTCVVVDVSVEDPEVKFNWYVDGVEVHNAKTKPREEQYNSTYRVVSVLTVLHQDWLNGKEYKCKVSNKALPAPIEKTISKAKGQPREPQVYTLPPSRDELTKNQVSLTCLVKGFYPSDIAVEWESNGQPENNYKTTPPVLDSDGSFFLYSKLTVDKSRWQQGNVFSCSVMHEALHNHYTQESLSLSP
light: B1 light
notes: also called Ho Ab H268_03V
B9: GpH7-B3 variant H268_05P/GpL16-k0 (antibody, human IgG1, kappa)
heavy: not shown
light: B1 light
notes: also called Ho Ab H268_05P
B10: GpH7-B3 variant H268_11K/GpL16-k0 (antibody, human IgG1, kappa)
heavy: not shown
light: B1 light
notes: also called Ho Ab H268_11K
B11: GpH7-B3 variant H268_12R/GpL16-k0 (antibody, human IgG1, kappa)
heavy: not shown
light: B1 light
notes: also called Ho Ab H268_12R
B12: GpH7-B3 variant H268_15Y/GpL16-k0 (antibody, human IgG1, kappa)
heavy: not shown
light: B1 light
notes: also called Ho Ab H268_15Y
B13: GpH7-B3 variant H268_20W/GpL16-k0 (antibody, human IgG1, kappa)
heavy: not shown
light: B1 light
notes: also called Ho Ab H268_20W
B14: GpH7-B3 variant I332_06M/GpL16-k0 (antibody, human IgG1, kappa)
heavy: not shown
light: B1 light
notes: also called Ho Ab I332_06M
B15: GpH7-B3 variant I332_14T/GpL16-k0 (antibody, human IgG1, kappa)
heavy: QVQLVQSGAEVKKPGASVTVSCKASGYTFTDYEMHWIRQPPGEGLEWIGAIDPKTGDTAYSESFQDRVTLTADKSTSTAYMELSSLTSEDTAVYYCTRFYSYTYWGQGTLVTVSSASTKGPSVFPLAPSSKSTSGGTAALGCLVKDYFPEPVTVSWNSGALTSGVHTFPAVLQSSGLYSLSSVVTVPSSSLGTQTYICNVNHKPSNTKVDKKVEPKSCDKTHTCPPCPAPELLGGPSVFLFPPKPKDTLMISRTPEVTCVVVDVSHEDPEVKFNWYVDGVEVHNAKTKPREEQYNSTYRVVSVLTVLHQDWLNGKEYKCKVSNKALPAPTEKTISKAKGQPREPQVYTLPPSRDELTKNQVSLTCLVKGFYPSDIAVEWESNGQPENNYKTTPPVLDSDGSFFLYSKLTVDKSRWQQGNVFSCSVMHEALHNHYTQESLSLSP
light: B1 light
notes: also called Ho Ab I332_14T
B16: GpH7-B3 variant I336_06M/GpL16-k0 (antibody, human IgG1, kappa)
heavy: not shown
light: B1 light
notes: also called Ho Ab I336_06M
B17: GpH7-B3 variant I336_08L/GpL16-k0 (antibody, human IgG1, kappa)
heavy: not shown
light: B1 light
notes: also called Ho Ab I336_08L
B18: GpH7-B3 variant I336_18N/GpL16-k0 (antibody, human IgG1, kappa)
heavy: not shown
light: B1 light
notes: also called Ho Ab I336_18N
B19: GpH7-B3 variant K326_03V/GpL16-k0 (antibody, human IgG1, kappa)
heavy: not shown
light: B1 light
notes: also called Ho Ab K326_03V
B20: GpH7-B3 variant K326_04F/GpL16-k0 (antibody, human IgG1, kappa)
heavy: not shown
light: B1 light
notes: also called Ho Ab K326_04F
B21: GpH7-B3 variant K326_07I/GpL16-k0 (antibody, human IgG1, kappa)
heavy: not shown
light: B1 light
notes: also called Ho Ab K326_07I
B22: GpH7-B3 variant K326_08L/GpL16-k0 (antibody, human IgG1, kappa)
heavy: not shown
light: B1 light
notes: also called Ho Ab K326_08L
B23: GpH7-B3 variant K326_12R/GpL16-k0 (antibody, human IgG1, kappa)
heavy: not shown
light: B1 light
notes: also called Ho Ab K326_12R
B24: GpH7-B3 variant K326_15Y/GpL16-k0 (antibody, human IgG1, kappa)
heavy: not shown
light: B1 light
notes: also called Ho Ab K326_15Y
B25: GpH7-B3 variant K326_18N/GpL16-k0 (antibody, human IgG1, kappa)
heavy: not shown
light: B1 light
notes: also called Ho Ab K326_18N
B26: GpH7-B3 variant K326_20W/GpL16-k0 (antibody, human IgG1, kappa)
heavy: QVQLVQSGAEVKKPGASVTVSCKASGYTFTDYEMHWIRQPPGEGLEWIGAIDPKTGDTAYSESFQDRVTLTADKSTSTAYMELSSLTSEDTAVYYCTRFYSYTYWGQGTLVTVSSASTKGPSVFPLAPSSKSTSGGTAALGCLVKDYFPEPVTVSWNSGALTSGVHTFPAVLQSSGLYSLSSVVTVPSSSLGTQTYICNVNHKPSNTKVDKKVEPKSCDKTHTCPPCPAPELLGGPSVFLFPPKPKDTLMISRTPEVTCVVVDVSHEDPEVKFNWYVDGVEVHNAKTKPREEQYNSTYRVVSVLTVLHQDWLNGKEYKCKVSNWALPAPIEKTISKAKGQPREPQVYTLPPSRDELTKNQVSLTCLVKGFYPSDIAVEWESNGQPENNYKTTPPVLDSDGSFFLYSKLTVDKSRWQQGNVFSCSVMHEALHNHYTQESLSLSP
light: B1 light
notes: also called Ho Ab K326_20W
B27: GpH7-B3 variant K334_02A/GpL16-k0 (antibody, human IgG1, kappa)
heavy: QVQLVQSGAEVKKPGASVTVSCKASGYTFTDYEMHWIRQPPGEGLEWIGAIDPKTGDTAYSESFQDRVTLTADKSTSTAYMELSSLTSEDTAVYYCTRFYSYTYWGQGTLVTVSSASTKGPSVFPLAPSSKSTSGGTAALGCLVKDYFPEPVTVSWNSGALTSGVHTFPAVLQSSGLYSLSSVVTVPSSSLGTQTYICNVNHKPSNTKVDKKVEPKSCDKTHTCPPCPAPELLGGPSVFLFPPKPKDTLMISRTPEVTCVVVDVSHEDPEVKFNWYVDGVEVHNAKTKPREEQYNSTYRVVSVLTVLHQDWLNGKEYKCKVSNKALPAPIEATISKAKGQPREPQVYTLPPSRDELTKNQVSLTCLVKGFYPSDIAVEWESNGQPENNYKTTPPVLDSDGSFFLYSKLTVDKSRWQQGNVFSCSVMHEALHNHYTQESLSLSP
light: B1 light
notes: also called Ho Ab K334_02A
B28: GpH7-B3 variant K334_04F/GpL16-k0 (antibody, human IgG1, kappa)
heavy: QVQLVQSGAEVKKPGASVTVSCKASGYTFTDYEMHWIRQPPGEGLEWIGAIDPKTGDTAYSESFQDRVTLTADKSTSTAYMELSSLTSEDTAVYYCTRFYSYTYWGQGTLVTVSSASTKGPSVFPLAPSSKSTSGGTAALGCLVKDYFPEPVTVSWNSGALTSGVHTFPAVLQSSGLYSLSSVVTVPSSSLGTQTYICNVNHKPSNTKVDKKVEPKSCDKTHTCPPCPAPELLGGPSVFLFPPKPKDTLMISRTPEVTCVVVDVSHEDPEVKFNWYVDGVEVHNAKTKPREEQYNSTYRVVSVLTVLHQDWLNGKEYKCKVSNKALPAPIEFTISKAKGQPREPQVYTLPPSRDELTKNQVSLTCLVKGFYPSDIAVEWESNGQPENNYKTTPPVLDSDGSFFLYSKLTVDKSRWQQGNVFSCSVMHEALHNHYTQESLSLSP
light: B1 light
notes: also called Ho Ab K334_04F
B29: GpH7-B3 variant K334_05P/GpL16-k0 (antibody, human IgG1, kappa)
heavy: not shown
light: B1 light
notes: also called Ho Ab K334_05P
B30: GpH7-B3 variant K334_08L/GpL16-k0 (antibody, human IgG1, kappa)
heavy: not shown
light: B1 light
notes: also called Ho Ab K334_08L
B31: GpH7-B3 variant K334_10E/GpL16-k0 (antibody, human IgG1, kappa)
heavy: not shown
light: B1 light
notes: also called Ho Ab K334_10E
B32: GpH7-B3 variant K334_12R/GpL16-k0 (antibody, human IgG1, kappa)
heavy: not shown
light: B1 light
notes: also called Ho Ab K334_12R
B33: GpH7-B3 variant K334_13S/GpL16-k0 (antibody, human IgG1, kappa)
heavy: not shown
light: B1 light
notes: also called Ho Ab K334_13S
B34: GpH7-B3 variant K334_19Q/GpL16-k0 (antibody, human IgG1, kappa)
heavy: not shown
light: B1 light
notes: also called Ho Ab K334_19Q
B35: GpH7-B3 variant K334_20W/GpL16-k0 (antibody, human IgG1, kappa)
heavy: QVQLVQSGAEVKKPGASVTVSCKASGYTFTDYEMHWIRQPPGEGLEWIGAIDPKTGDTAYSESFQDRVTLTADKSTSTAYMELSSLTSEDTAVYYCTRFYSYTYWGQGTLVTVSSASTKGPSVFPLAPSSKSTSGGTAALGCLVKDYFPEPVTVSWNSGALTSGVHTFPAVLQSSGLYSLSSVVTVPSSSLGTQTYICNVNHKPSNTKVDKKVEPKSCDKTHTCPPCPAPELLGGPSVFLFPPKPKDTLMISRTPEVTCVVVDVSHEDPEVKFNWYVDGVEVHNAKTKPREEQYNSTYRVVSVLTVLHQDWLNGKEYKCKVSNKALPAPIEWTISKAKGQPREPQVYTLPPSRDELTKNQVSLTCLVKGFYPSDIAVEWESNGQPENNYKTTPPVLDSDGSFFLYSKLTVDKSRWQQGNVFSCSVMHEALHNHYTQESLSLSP
light: B1 light
notes: also called Ho Ab K334_20W
B36: GpH7-B3 variant L234_04F/GpL16-k0 (antibody, human IgG1, kappa)
heavy: not shown
light: B1 light
notes: also called Ho Ab L234_04F
B37: GpH7-B3 variant L234_09D/GpL16-k0 (antibody, human IgG1, kappa)
heavy: not shown
light: B1 light
notes: also called Ho Ab L234_09D
B38: GpH7-B3 variant L234_10E/GpL16-k0 (antibody, human IgG1, kappa)
heavy: not shown
light: B1 light
notes: also called Ho Ab L234_10E
B39: GpH7-B3 variant L234_20W/GpL16-k0 (antibody, human IgG1, kappa)
heavy: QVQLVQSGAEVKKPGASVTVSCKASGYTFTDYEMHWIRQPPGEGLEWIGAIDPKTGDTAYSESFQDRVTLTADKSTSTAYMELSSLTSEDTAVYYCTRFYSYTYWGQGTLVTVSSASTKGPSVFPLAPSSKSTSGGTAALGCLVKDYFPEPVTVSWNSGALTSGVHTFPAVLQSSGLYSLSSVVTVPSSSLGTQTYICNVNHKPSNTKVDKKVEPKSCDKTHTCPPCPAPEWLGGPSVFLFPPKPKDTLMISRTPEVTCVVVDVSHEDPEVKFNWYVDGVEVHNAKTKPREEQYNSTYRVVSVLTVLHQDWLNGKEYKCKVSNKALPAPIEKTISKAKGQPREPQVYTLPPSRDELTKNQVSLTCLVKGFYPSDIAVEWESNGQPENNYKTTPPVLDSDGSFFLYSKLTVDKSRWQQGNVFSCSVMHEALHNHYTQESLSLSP
light: B1 light
notes: also called Ho Ab L234_20W
B40: GpH7-B3 variant L235_04F/GpL16-k0 (antibody, human IgG1, kappa)
heavy: not shown
light: B1 light
notes: also called Ho Ab L235_04F
B41: GpH7-B3 variant L235_09D/GpL16-k0 (antibody, human IgG1, kappa)
heavy: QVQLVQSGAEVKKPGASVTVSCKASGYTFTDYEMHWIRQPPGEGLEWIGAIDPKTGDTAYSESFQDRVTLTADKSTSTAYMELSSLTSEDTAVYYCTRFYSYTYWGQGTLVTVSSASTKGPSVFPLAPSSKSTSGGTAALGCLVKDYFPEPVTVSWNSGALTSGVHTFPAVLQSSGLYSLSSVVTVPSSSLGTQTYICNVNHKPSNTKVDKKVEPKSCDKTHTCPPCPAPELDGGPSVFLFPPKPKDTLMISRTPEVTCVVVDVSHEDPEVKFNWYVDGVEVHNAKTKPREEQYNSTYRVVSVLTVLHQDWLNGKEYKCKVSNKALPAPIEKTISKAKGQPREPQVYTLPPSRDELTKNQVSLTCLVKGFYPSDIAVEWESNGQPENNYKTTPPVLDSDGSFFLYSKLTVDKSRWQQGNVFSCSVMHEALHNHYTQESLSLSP
light: B1 light
notes: also called Ho Ab L235_09D
B42: GpH7-B3 variant L235_15Y/GpL16-k0 (antibody, human IgG1, kappa)
heavy: not shown
light: B1 light
notes: also called Ho Ab L235_15Y
B43: GpH7-B3 variant L235_20W/GpL16-k0 (antibody, human IgG1, kappa)
heavy: not shown
light: B1 light
notes: also called Ho Ab L235_20W
B44: GpH7-B3 variant L328_02A/GpL16-k0 (antibody, human IgG1, kappa)
heavy: not shown
light: B1 light
notes: also called Ho Ab L328_02A

target: T1, FcγRIIa R (human, UniProt P12318 34-217); experiment: SPR (Biacore), captured antibody, FcγR as analyte; relative binding activity
T1 construct: extracellular domain; also called FcgRIIa R type; 2aR
T1 sequence (looked up): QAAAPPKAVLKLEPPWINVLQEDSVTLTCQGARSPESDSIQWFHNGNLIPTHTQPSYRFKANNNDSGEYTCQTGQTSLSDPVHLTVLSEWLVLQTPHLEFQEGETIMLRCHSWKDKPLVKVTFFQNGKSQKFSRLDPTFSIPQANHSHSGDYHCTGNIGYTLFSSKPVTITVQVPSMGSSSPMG
Description: Analysis of interaction between objective antibody and the FcγR was carried out using Biacore T100 (GE Healthcare). HBS-EP+ (GE Healthcare) was used as the running buffer, and the measurement temperature was set to 25° C. Chips produced by immobilizing the antigen peptide by the amine coupling method to a Series S Sencor Chip CM5 (GE Healthcare), or alternatively, chips produced by allowing preliminarily biotinylated antigen peptides to interact with and immobilize onto a Series S Sensor Chip SA (certified) (GE Healthcare) were used. Antibodies of interest were captured onto an antigen peptide-immobilized chip, and allowed to interact to each FcγR diluted with running buffer. To regenerate and repeatedly use the chip, the antibodies captured on the chip were washed off by reacting 10 mM glycine-HCl, pH 1.5.

Row | Binder | Ho/Con_2aR
1 | B1 | 73.1 % (GpH7-B3/GpL16-k0 = 100)
2 | B2 | 22.5 % (GpH7-B3/GpL16-k0 = 100)
3 | B3 | 44.4 % (GpH7-B3/GpL16-k0 = 100)
4 | B4 | 73.6 % (GpH7-B3/GpL16-k0 = 100)
5 | B5 | 14.3 % (GpH7-B3/GpL16-k0 = 100)
6 | B6 | 107 % (GpH7-B3/GpL16-k0 = 100)
7 | B7 | 122 % (GpH7-B3/GpL16-k0 = 100)
8 | B8 | 105 % (GpH7-B3/GpL16-k0 = 100)
9 | B9 | 95.9 % (GpH7-B3/GpL16-k0 = 100)
10 | B10 | 93.4 % (GpH7-B3/GpL16-k0 = 100)
11 | B11 | 98.5 % (GpH7-B3/GpL16-k0 = 100)
12 | B12 | 106 % (GpH7-B3/GpL16-k0 = 100)
13 | B13 | 110 % (GpH7-B3/GpL16-k0 = 100)
14 | B14 | 105 % (GpH7-B3/GpL16-k0 = 100)
15 | B15 | 99.6 % (GpH7-B3/GpL16-k0 = 100)
16 | B16 | 96.4 % (GpH7-B3/GpL16-k0 = 100)
17 | B17 | 105 % (GpH7-B3/GpL16-k0 = 100)
18 | B18 | 94.5 % (GpH7-B3/GpL16-k0 = 100)
19 | B19 | 139 % (GpH7-B3/GpL16-k0 = 100)
20 | B20 | 133 % (GpH7-B3/GpL16-k0 = 100)
21 | B21 | 133 % (GpH7-B3/GpL16-k0 = 100)
22 | B22 | 131 % (GpH7-B3/GpL16-k0 = 100)

Row | Binder | Ho/Con_2aR
23 | B23 | 95.7 % (GpH7-B3/GpL16-k0 = 100)
24 | B24 | 134 % (GpH7-B3/GpL16-k0 = 100)
25 | B25 | 113 % (GpH7-B3/GpL16-k0 = 100)
26 | B26 | 120 % (GpH7-B3/GpL16-k0 = 100)
27 | B27 | 100 % (GpH7-B3/GpL16-k0 = 100)
28 | B28 | 110 % (GpH7-B3/GpL16-k0 = 100)
29 | B29 | 102 % (GpH7-B3/GpL16-k0 = 100)
30 | B30 | 105 % (GpH7-B3/GpL16-k0 = 100)
31 | B31 | 106 % (GpH7-B3/GpL16-k0 = 100)
32 | B32 | 110 % (GpH7-B3/GpL16-k0 = 100)
33 | B33 | 106 % (GpH7-B3/GpL16-k0 = 100)
34 | B34 | 108 % (GpH7-B3/GpL16-k0 = 100)
35 | B35 | 96.4 % (GpH7-B3/GpL16-k0 = 100)
36 | B36 | 43.3 % (GpH7-B3/GpL16-k0 = 100)
37 | B37 | 42.8 % (GpH7-B3/GpL16-k0 = 100)
38 | B38 | 39.9 % (GpH7-B3/GpL16-k0 = 100)
39 | B39 | 53.8 % (GpH7-B3/GpL16-k0 = 100)
40 | B40 | 98.9 % (GpH7-B3/GpL16-k0 = 100)
41 | B41 | 73 % (GpH7-B3/GpL16-k0 = 100)
42 | B42 | 111 % (GpH7-B3/GpL16-k0 = 100)
43 | B43 | 114 % (GpH7-B3/GpL16-k0 = 100)
44 | B44 | 97 % (GpH7-B3/GpL16-k0 = 100)

From patent US20150344570A1 (published 2015)
